The source of these data is patent publication US20240199750A1.

Experiment [1] deals with IL-2Rβ (CD122) on NK cells (human) (UniProt P14784). The experiment in a line: cell-based or functional assay.
Experiment [2] addresses high affinity IL-2Rαβγ complex on Treg cells (human) (UniProt P01589). The experiment in a line: cell-based or functional assay.
Sequence of UniProt P01589 (P01589 22-272, chain 1 of 3): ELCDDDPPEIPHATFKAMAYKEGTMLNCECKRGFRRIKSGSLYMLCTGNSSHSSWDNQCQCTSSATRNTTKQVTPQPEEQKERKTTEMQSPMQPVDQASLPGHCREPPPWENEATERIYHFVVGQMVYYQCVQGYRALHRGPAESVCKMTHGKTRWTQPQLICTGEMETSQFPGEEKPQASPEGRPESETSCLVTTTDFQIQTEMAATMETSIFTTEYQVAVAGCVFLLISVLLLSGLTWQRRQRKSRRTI
Sequence of UniProt P01589 (P14784 27-551, chain 2 of 3, further chain): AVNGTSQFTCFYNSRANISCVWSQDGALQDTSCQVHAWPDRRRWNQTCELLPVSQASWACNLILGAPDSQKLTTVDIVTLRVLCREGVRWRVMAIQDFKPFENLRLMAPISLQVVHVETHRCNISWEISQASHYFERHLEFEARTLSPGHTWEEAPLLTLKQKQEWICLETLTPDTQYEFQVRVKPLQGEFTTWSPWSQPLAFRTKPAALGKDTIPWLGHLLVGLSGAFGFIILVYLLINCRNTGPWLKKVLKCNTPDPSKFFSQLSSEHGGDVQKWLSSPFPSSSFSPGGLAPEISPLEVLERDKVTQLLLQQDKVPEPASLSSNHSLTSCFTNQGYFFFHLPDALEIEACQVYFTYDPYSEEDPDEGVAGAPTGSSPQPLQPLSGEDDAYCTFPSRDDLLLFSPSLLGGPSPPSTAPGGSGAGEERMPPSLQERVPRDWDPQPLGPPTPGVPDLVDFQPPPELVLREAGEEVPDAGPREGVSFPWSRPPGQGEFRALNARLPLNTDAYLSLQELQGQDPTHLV
Sequence of UniProt P01589 (P31785 23-369, chain 3 of 3, further chain): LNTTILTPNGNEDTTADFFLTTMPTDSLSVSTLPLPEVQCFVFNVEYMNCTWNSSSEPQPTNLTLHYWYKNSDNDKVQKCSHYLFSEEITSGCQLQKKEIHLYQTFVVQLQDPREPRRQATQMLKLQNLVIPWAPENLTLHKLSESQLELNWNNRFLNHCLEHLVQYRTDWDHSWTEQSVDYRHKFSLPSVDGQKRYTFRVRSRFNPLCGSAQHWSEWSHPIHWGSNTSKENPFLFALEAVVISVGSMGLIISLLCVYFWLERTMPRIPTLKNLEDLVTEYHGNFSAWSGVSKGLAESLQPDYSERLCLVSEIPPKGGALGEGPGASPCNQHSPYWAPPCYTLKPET

Sequence of UniProt P14784 (P14784 27-551): as the sequence (P14784 27-551, chain 2 of 3, further chain) above

B1: CD20-T5-NKp46-IL2v3 (protein, part only; not given: anti-CD20 antibody chains, anti-NKp46 domain, part only)
chain, part: SSSTKKTQLQLEHLLLDLQMILNGINNYKNPKLTAMLAKKFYMPKKATELKHLQCLEEELKPLEEVLNLAQSKNFHLRPRDLISNINVIVLELKGSETTFMCEYADETATIVEFLNRWITFCQSIISTLT
In turn, B1 showed a % pSTAT5, EC50 NK cells in experiment [1] of 10 pM. In addition, the % pSTAT5, EC50 Tregs in experiment [2] worked out at 0.7 nM.
